Experimental findings from publication doi:10.1101/2022.06.15.496315 are described below.

Like-named read-outs stand apart in the source and are kept apart here.

Assay [1] concerns the target ZIKV envelope protein (E) in infected Vero cells (Zika virus (MR766 strain)). The assay can be described thus: proximity ligation.
Assay [2] has the same target. In words: proximity ligation. This is another data set of the same source.

Turning to “naturally occurring dynein (cytoplasmic dynein-1) of Vero cells, detected by its heavy chain (natural protein)”, the PLA dots per cell (dots per cell) is over 6 in assay [1] and under 1 in assay [2].
